B1: TPR t1 (parent)
chain: GACCAAUCUGCCCUCAGAGCUCGAGAACAUCUUCGGAUGCAGAGGAGGCAGGCUUCGGUGGCGCGAUAGCGCCAACGUCCUCAACCUCCAAUGCAUCCCACCACAUGAUGAUGCCUGAAGAGCCUUGGUUUUUUG

Variants of: B1
Test: polymerase ribozyme fitness, log enrichment relative to wild type (log ratio); higher = more active; in vitro selection for triplet polymerase activity
Summary of the method: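 Mutant libraries of each subunit of a heterodimeric triplet polymerase ribozyme were built by PCR and transcribed. Each library went through one round of in vitro selection in triplicate: annealing with biotinylated primer, partner subunit and triplets, frozen incubation at −7 °C, gel excision of extended constructs, streptavidin-bead capture and RT-PCR. Input and output libraries were Illumina-sequenced; only genotypes with ≥10 input reads and ≥1 read per output were kept. Fitness is log2(genotype enrichment/wild-type enrichment), using inverse-variance-weighted replicate averages.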

| Variant | polymerase ribozyme fitness (log ratio) |
| --- | --- |
| G51C C70G U109G | -7.25 |
| C20A C56A C76A C82U | -4.8 |
| C72A C88A G120U | -0.866 |
| G61A U78G | -0.87 |
| G61U U112A | 1.27 |
| C3U G39U U81C A111C | -2.34 |
| A37C C70U | -0.649 |
| A46C G61A C80A | -3.96 |
| A16U G17A C49U G57U A90U | -5.5 |
| U109C U130C | -5.04 |
| A2G C13G | 0.491 |
| A18U G77U | -2.27 |
| C8G G36U C70U | 0.358 |
| A18U C62U | -2.48 |
| A16U G58A C62A | -3.9 |
| A18U C72U U78A | -2.59 |
| G39A G42U C80U C124U | -1.59 |
| G44U G60C | -0.794 |
| A2G U78C | -0.357 |
| C8U U9C G52U U55C | -0.0264 |
| A2U A41G U55A C72A | -2.61 |

| Variant | polymerase ribozyme fitness (log ratio) |
| --- | --- |
| C11U C114A C123U | -2.21 |
| G60U C80A | -3.33 |
| C4G C8U A18U A43U U81A | -2.85 |
| U21A G51A G57U | -2.59 |
| G57A G58C G63A C89A | -6.16 |
| C20A G48U U55C | -3.81 |
| A46G A50U C88A C89A C124A U133A | -0.0922 |
| C12U C15A G52A | -0.639 |
| C13U G63A U96A | -1.68 |
| C12A C124U | 0.853 |
| G25A G71U | -6.24 |
| C40A G69A | -4.81 |
| C3G C15A | -5.49 |
| U7A G36U G45U C86U | -3.34 |
| C86U C115G | -1.57 |
| C28G U32C C101A | -3.79 |
| C62U C99U | -3.59 |
| C56U A84G A95C G127U | -2.62 |
| G10C U106C G127A G135U | -3.46 |
| C3U U109G G110A | -4.81 |
| A24G G42U G60U A66U C88G A121G | -3.8 |

| Variant | polymerase ribozyme fitness (log ratio) |
| --- | --- |
| C123A U125C | 0.193 |
| G42A U59A | -1.76 |
| C56U U109A | -5.25 |
| G60C A84U | -0.735 |
| U55A C88A | 0.08 |
| U38A G58C C70U C115A | -1.72 |
| C49U C62U | -1.19 |
| G110A C115G | -5.71 |
| C3U A37G C49G G69A C73U | -3.7 |
| G57C C72U U129A | -1.29 |
| C11A C115U | -2.42 |
| A95U U116G | -2 |
| C13U U130A U133A | -1.2 |
| G42U G77U U106A G120C | -2 |
| C62G A95G | -1.49 |
| U32C C102G G113A | -7.53 |
| C31U G44U | -5.33 |
| A50U G61A U106A | -1.03 |
| G60U U132C | -0.354 |
| A2U C70U | -2.28 |
| G44U C70A U116C | -4.01 |

| Variant | polymerase ribozyme fitness (log ratio) |
| --- | --- |
| C20U G45A G93U | -4.76 |
| C70U U87G G120C | 1.04 |
| A41G C72A C98U C124U | 0.986 |
| U9A A50U C62G | -2.77 |
| G36C G69U U132C | -0.866 |
| G44C G63A C86A | -3.09 |
| G52A G61A | -0.531 |
| C56A U81A C102A | -3.37 |
| A27C G47U | -4.29 |
| G19U G42C | -3.93 |
| C62A A83U U92A U116C | -5.36 |
| C13U C20U G120C C123G G127A | -2.54 |
| G57A A66U C115G | -4.64 |
| C12A C31U A83C | -5.06 |
| G10A C11G G51U | -2.64 |
| A29U A46G G60U A91C | -2.59 |
| C31A C73A | -5.35 |
| U78C C79G U106A | -0.519 |
| C53G G120C U125C | 0.247 |
| C11A C12U G57U U87G G93A C102A | -4.56 |
| C4A C72U G110A U129G | -5.59 |

Reference: the RNAGym collection of RNA variant scans (doi:10.1073/pnas.2313332121)
